# B1: Hepacivirus P (nucleic acid, listed as Hepacivirus sp.)
# DNA: ACATGGGGGGGGGCTGACAGTGAGTACACTGTGCCAAGCAGGTGCTACGCTATGCCTAGGTGCTGCTGTAGGCCAAGGACATGTCCCAGTCATCCCAGGTGAGGGGGGGGGTTCCCCTCACCGCTGCCACTGCCTGATAGGGTCCTGCCGGAGGGTCTCGGTGTCCGGCTGTAC
# B2: Hubei picorna-like virus 2 (nucleic acid)
# DNA: AGCAACTTCTTTCTGAAAACTAGCTAGAGTTCGACGATCTCTCTGGCTAATGACAAATAACCAATCAAAAAGTCAAATGTTCATGTATATATATATTTAGTAGTGACCTTTATTTAGAAAAACTTTAGATGATTTATCGTCAAGTTGCCCTTTGTGAAGCGATCAGCTTTTTATATCGTTTCATTTTTGTATACGTCTTAATTGACGTTGTAAGTACGTTTTGCATACCTCACATTGAGGATAGTATCGTTTCCTGACTAAGAAGTTAAACTAGTCTACCAATAGCAACCATATAGGATATAGCTTTGTTTTTAACAAGGTTTAATCTGATCTTATGCTCTTGCTTACGGTGTTTTATGTATAGAAAAGTTTTTATAAAAACTACATAATTGTCAAAAGAAAAAGCGTTACGTACTGACGCATTTATGTTCACAGTGTGACACAAACCTTCTATATTTTGATTGTAAAATAGGCTTTGCCTGACCATTTATCAAATACAAACTGTTTCAAACGCCTCTCCGAGCCATATTGGCCGACGCGAATCGACATAACAGGGTGAGTTTACAGCTGCAGTTGCAGCCGAGGATCCACTTATTTGAGAGAGAATTACTCTTAACGAAATTTTGAAGTCACTTCTACACAGTTAAGTCTGAGTAGGCGTTATCCAAACGTAAA
# modifications: source: /note="Description of Unknown: Hubei picorna-like virus 2 sequence"
# B3: Hubei sobemo-like virus 3 (nucleic acid)
# DNA: GAGATGTTTGCGTGGGCCGTTGCGCTGCGGGCGGCCCACCTCCCTACGGGGACCGTGAGACACCGCTGGGGAAGGCCCCCACCCCCGGCCAAGGGGATCCTGCCGAGAGGCAGGAGAAAGAGGCCCAGCCCTCTGGGGCGCCTTTAGGGGTGCCTGGGAGGGAAGTACCCGAGCCGGGCGGCCGGTCGGGTGCGGCTGTGCAGTTCGAGGCTAACCGTAAGGAAGGCCTGAGCTGCCTCGGCTTGTCGGAAAGGAAGACGAAGGCACTTATCAAGGCTTTCAGGAAGCAGGAGCGCAATTACAGCGCGCGCCGTGCGGCCTGGATTAACCGCATTTGGCCG
# modifications: source: /note="Description of Unknown: Hubei sobemo-like virus 3 sequence"
# B4: Harrier picornavirus 1 (nucleic acid)
# DNA: GATGTGTGACGGTGTAATTACTTTCCGGATCCCACTTTCCTATTATAACTCTTTCATCCCAAGGTTAGGGAAAGAACCTGGCTCGGTACCACCAGACCCTCCGCCACGCTAGTGGACTCTCCGGAGATAACGGTACCCCCTTTGTAGTCACCTGTGCTGGTGAAGAACCACCTAGTATTGCTTGGGTGCGTGCCGCCTAGCTTCCATTTCTTCTGGAGCACTGTGCAATGAGGTTTCCCCACTTGGTAACAAGTGCCTCAGGTCCCGCAAGGATACTGTGGGGTGGTGTGACCGCAGGGAGCTGTCTCCACGGCTCCTCTAATGTTACGCCGCTATCCACAGGCCAGTGCGTGTCATCGATCCCGGATGACAGAGCTAGTATTGCGAACCCCCAAGTAAGAAAAGTGGCTAGTAACCTGATAGCTGGTGAAGAGGGTGGGTCAGTTGAGTAGATGCCCTAGAGGTACCCGAAAGGATCTGACTAGGGACCCGTGACTATACATTAGGTAAACCGGGTATAAAAACCATGAAAAACTGACCACTTTTCTTTTAACCTCTTCTTTCTTTTTATGTGTGTTAAGTGTTTTGAGTTTGGACTGTACCTTGCCCGCCTTTCTTGGATTTTCTCTATCGCTCTTCTTACACCTACTGTTATCAAGGCACTCTTTAGAGATA
# modifications: source: /note="Description of Unknown: Harrier picornavirus 1 sequence"
# Tested on: HEK293 cells
# Format: cell-based, human
# Conditions: circular RNA encoding Gluc with the listed IRES (UTR truncated to 675 nt) transfected into HEK293 cells; supernatant after 24 hours
row,Molecule,Expression (luminescence from secreted Gluc protein)
1,B1,6.04E+05
2,B2,1.95E+05
3,B3,1.17E+05
4,B4,1.47E+05

# Reference: patent US20240245805A1 (Orna Therapeutics, Inc., priority 2020, published 2024)
